The nature of this data set: yeast display, Sf9 membrane polyspecificity reagent, FACS + sequencing; frameworks hold sequencing errors. An outline of the steps:
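Sorting gates, low and high (top ~1%), were placed on anti-HA fluorescence to track expression and on streptavidin fluorescence to track reagent binding. A clone's polyreactivity label is taken from the gate it came out of. The reagent was 10% biotinylated, detergent-solubilized Sf9 membrane, applied for 1 hour at 4 °C to galactose-induced yeast display cells.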
Consider “QVKLVESGGGLVQAGGILRLSCAASGSIIVGNPMGWYRQAPGKERELVAAISRSGGSTYYADSVKGRFTISRDIAKNTVYLQMNSLKPEDTEVYYCASVRKQASGVDYWGQGTQVPVSS”, for which the “polyreactivity (PSR sort gate)” value was “high polyreactivity”.
With “QVKLVESGGGLVQAGGRLRLSCAASGFTCNVYAMGLYRQAPGKERELVADISGTGGSTYYADSVKGRFTISRDNAKNTVYLQMNSLKPEDTAVYYCSSGTRNFDFWGQGTQVTVSS” the entry was “high polyreactivity”.
With “QVKLVESGGGLVQAGGSLLLSCAASGRTFYRYAMGWYIQAPGKERELVARISSGGGTYYADSVKGRFTISRDNAKNTVYLQMNSLKPEVTAVYYCNADVYRWSGSYTGWDSWHDYWGQGTQVSVSS” the entry was “low polyreactivity”; with “QVKLVESGGGLVQAGGSLRLSCAASGFIFPDYAMGWYRQAPGKERELVAAITSSGGRTYYADSVKGRFTISRDNAKNTVYLQMNSLKPEDTAVYYCAARTISPRGYGSDYWGQGTQVTVSS”, “high polyreactivity”.
The value for “QVKLVESGGGLVQAGGSLRLSCAASGFIFSNNAMGWYRQAPGKERELVAAITSSGGRTYYADSVKGRFTISRDYAKNTVYLQMNSLKPEDSSVYYCAAARYDIMGYWGLGTQVTVSS” was “high polyreactivity”; that for “QVKLVESGGGLVQAGGSLRLSCAASGFTFTWYVMGWYRQAPGKESELVAAISRSGGSKYYADSVKGRFTISRDNAKNTVYLQMNRLKPEDTAVYYCADVGTSSYDYWGQGTQVTVSS” was “high polyreactivity”; that for “QVKLVESGGGLVQAGGSLRLSCAASGGTFTLYAMGWYRQAPGKERELVAAISTSGGSTYYADSVKGRFTISRDNAKNTVYLQMNSLKPEDTAVYYCAAVTRYAGRIRYGYWGQGTQVTVSS” was “high polyreactivity”.
With “QVKLVESGGGLVQAGGSLRLSCAASGIIFTFYSMGRYRQAPGKERELVAAITGSGGSTYYADSVKGRFTISRDNAKNSVYLQMNSLKPEDTAVYYCAADGPYGYYYGHYGYWGHGTQVTVSS”, the “polyreactivity (PSR sort gate)” value is listed as “low polyreactivity”.
The value for “QVKLVESGGGLVQAGGSLRLSCAASGITFVSYAMGWYTQAPGKEREFVAAINRSGGSTYYADSVKGRFTISRDNAKNTVYLQMNSLKPEDTAVYYCAARRNLAYYHSGYWGQGTQVTVSS” was “high polyreactivity”.
For “QVKLVESGGGLVQAGGSLRLSCAASGLTFATYAMGWYREAPGKERELVAAISYSGDSTYYADSVKGRFTISRDNAKNTVYLQMNSLKPEDTAVYYCAKRLKRYRSSYKTFKLDYWGQGTQVTVSS”, the “polyreactivity (PSR sort gate)” value is on record as “high polyreactivity”.
With “QVKLVESGGGLVQAGGSLRLSCAASGNIFRRYTMGWYRQAPGKERELVAAISSGGSTNYADSEKGRFTISRDNAKNTVYLQMNSLKPEDTAVYYCAVSYRSFRYYWERYYSWGQGTQVTVSS” the entry was “high polyreactivity”.
The value for “QVKLVESGGGLVQAGGSLRLSCAASGRIFVSKAMGWYRQAPGKERELVAAISKRGASTYYADSVKGRFTISRDKAKNPVYLQINSLKPEDTEVYYCNVVTTGGPNYDYWGQGTQVTVSS” was “high polyreactivity”; that for “QVKLVESGGGLVQAGGSLRLSCAASGRTFRYNAMGWYRQEPGEERELVASITSGGSTNYADSVKGRFTISRDNAKNTVYLQMNRLKPEDTAVYYCAADERRPYWQHCIGSGRPFDYWGQGTQVTVSS” was “low polyreactivity”.
The value for “QVKLVESGGGLVQAGGSLRLSCAASGRTFVWNAMGWYRQAPGKERELVAAISSSGTSTYYADSVKGRFTISRDNAKNTVYLQMNSQKPEDTAVYYCAKDLLYQPTIRDYWGQGTQVTVSS” was “low polyreactivity”; that for “QVKLVESGGGLVQAGGSLRLSCPASGSTFVLNAMGWYRQAPGKERELVAAITWSGASTYYADSVKGRFTISRDNAKNTVYLQMNSLKPEDTAVYYCANDIPTDYKDVNYWGQGTQVTVSS” was “low polyreactivity”; that for “QVKLVESGGGLVQAGGSLRLSCSASGSIITHNTMVWYRQAPGKERELVASIDSGASTNYADSVKWRFTISRDNAKNSVYLLMNSLKPEDTAVYYCAADDANFRYRDDYWGQGTQVTVSS” was “low polyreactivity”.

For the origin of these results see the nanobody polyreactivity screen of Harvey et al. (2022).
